Assay results: article PMC5546038, “Engineering the fragment crystallizable (Fc) region of human IgG1 multimers and monomers to fine-tune interactions with sialic acid-dependent receptors” (The Journal of Biological Chemistry, 2017)

Legend:
hexa-Fc N297A/N563A = molecular target: T1, hexa-Fc N297A/N563A (human); assay: SEC + other: non-reducing SDS-PAGE; molecular mass ∼650–700 kDa; SEC shown for N563A (supplemental Fig. S2); sizes counted in Fc units of two chains; conditions: both partners purified
T1 chain: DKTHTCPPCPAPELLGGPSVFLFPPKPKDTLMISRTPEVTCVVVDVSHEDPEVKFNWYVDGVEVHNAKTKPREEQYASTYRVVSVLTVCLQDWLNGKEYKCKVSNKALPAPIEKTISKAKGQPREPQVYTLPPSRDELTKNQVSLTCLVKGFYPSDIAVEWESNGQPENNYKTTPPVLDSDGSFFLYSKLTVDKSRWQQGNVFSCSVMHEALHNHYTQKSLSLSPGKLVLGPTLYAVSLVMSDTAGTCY

[1] = molecular target: the molecule itself; assay: as above

Binder | stoichiometry N (hexa-Fc N297A/N563A) | stoichiometry N [1]
hexa-Fc N297A/N563A (other, no N-glycans; multimer, approximately dodecamers of Fc / no N-glycans; multimer, approximately dodecamers of Fc) DKTHTCPPCPAPELLGGPSVFLFPPKPKDTLMISRTPEVTCVVVDVSHEDPEVKFNWYVDGVEVHNAKTKPREEQYASTYRVVSVLTVCLQDWLNGKEYKCKVSNKALPAPIEKTISKAKGQPREPQVYTLPPSRDELTKNQVSLTCLVKGFYPSDIAVEWESNGQPENNYKTTPPVLDSDGSFFLYSKLTVDKSRWQQGNVFSCSVMHEALHNHYTQKSLSLSPGKLVLGPTLYAVSLVMSDTAGTCY | ~12 | –
hexa-Fc D221N/N297A/N563A (other, N-linked glycan at Asn-221) NKTHTCPPCPAPELLGGPSVFLFPPKPKDTLMISRTPEVTCVVVDVSHEDPEVKFNWYVDGVEVHNAKTKPREEQYASTYRVVSVLTVCLQDWLNGKEYKCKVSNKALPAPIEKTISKAKGQPREPQVYTLPPSRDELTKNQVSLTCLVKGFYPSDIAVEWESNGQPENNYKTTPPVLDSDGSFFLYSKLTVDKSRWQQGNVFSCSVMHEALHNHYTQKSLSLSPGKLVLGPTLYAVSLVMSDTAGTCY | – | ~12
